The values below come from patent publication US20190083587A1 (Novo Nordisk, published 2019).

The Kd is the equilibrium constant for the complex coming apart. A high value points to weaker binding. In general, koff refers to the rate constant with which the complex falls apart. Low values mean a long-lived complex, high ones a short-lived complex. Usually kon stands for the second-order rate constant of association. Low readings indicate slow association, high ones fast association.

To fix the notation:
T1: human TLT-1 on activated platelets (human, UniProt Q86YW5 16-311)
T1 sequence: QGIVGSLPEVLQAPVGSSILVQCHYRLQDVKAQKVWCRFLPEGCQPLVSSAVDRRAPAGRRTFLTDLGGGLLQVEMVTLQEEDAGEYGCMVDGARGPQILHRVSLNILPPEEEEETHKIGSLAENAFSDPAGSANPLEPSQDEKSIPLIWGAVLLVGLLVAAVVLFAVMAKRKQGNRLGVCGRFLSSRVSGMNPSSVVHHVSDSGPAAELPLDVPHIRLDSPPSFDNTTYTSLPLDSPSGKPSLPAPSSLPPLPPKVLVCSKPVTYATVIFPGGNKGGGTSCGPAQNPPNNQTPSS

T2: human fibrinogen (human, UniProt P02671 20-629; P02675 31-491; P02679 27-437, limits assumed)
T2 construct: the chain composition (two each of alpha, beta, gamma) is from general knowledge; also called HCI-0150R Haematologic technologies
T2 sequence (looked up) 1: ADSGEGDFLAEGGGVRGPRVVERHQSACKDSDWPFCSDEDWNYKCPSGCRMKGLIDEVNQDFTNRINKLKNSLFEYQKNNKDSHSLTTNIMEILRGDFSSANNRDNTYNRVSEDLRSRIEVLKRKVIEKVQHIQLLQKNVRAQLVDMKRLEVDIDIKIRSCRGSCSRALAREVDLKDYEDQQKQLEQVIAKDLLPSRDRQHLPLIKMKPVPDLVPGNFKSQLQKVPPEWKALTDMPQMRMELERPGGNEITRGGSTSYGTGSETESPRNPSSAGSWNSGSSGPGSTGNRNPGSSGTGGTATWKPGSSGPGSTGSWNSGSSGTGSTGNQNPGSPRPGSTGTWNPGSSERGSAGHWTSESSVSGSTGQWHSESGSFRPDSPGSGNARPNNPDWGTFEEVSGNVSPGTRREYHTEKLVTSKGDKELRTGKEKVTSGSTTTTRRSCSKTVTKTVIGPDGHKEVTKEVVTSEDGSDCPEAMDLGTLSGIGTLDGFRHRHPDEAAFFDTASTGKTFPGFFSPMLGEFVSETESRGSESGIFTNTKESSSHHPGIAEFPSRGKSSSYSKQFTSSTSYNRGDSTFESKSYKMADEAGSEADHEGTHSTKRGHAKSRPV
T2 sequence (looked up) 2: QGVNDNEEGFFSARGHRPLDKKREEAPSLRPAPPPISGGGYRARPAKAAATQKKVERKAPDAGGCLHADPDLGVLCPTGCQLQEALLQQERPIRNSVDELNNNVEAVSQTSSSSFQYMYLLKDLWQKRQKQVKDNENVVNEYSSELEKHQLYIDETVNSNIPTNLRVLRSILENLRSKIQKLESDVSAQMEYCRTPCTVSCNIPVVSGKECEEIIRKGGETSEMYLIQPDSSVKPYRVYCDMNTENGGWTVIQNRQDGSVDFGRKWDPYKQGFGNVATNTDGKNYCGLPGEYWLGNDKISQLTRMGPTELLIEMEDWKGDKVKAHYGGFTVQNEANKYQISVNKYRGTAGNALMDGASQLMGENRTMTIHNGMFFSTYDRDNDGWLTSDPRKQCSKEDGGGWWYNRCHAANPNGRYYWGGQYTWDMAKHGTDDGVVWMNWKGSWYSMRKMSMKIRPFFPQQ
T2 sequence (looked up) 3: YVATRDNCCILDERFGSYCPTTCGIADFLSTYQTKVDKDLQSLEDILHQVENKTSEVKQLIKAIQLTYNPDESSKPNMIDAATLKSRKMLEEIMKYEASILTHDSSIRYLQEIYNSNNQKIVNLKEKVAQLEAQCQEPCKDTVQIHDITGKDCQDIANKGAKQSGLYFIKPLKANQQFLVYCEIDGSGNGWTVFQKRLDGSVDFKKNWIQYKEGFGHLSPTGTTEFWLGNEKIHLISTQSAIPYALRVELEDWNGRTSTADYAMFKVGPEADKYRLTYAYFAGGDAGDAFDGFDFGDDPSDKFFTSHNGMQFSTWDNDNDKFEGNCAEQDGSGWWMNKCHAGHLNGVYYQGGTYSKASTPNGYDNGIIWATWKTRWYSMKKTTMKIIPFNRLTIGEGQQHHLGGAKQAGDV

B1: FVIIa-Fab1001 (other)
heavy: EVKLLESGGGLVQPGGSLKLSCAASGFDFSRYWMTWVRQAPGKGLEWIGEINPDSSTINYNPSLKDKFIISRDNAKNTLYLQMSEVRSEDTALYYCASGVFTSWGQGTLVTVSAASTKGPSVFPLAPCSRSTSESTAALGCLVKDYFPEPVTVSWNSGALTSGVHTFPAVLQSSGLYSLSSVVTVPSSSLGTKTYTCNVDHKPSNTKVDKRVESKYGPPC
light: DVVMTQTPLSLPVSLGDQASISCRSSQSLVHRNGNTYFHWALQKPGQSPKLLIYKVSNRFSGVPDRFSGSGSGTDFTLKISRVEAEDLGVYFCSQSTHVPYTFGGGTKLEIKRTVAAPSVFIFPPSDEQLKSGTASVVCLLNNFYPREAKVQWKVDNALQSGNSQESVTEQDSKDSTYSLSSTLTLSKADYEKHKVYACEVTHQGLSSPVTKSFNRGECEDQVDPRLIDGK
chain: ANAFLEELRPGSLERECKEEQCSFEEAREIFKDAERTKLFWISYSDGDQCASSPCQNGGSCKDQLQSYICFCLPAFEGRNCETHKDDQLICVNENGGCEQYCSDHTGTKRSCRCHEGYSLLADGVSCTPTVEYPCGKIPILEKRNASKPQGRIVGGKVCPKGECPWQVLLLVNGAQLCGGTLINTIWVVSAAHCFDKIKNWRNLIAVLGEHDLSEHDGDEQSRRVAQVIIPSTYVPGTTNHDIALLRLHQPVVLTDHVVPLCLPERTFSERTLAFVRFSLVSGWGQLLDRGATALELMVLNVPRLMTQDCLQQSRKVGDSPNITEYMFCAGYSDGSKDSCKGDSGGPHATHYRGTWYLTGIVSWGQGCATVGHFGVYTRVSQYIEWLQKLMRSEPRPGVLLRAPFP
modifications: linker attached as sialic acid derivative to an N-linked glycan (ST3Gal-III); gamma-carboxylated Glu in the Gla domain; unpaired hinge Cys (YGPPC) coupled by maleimide to the 3 kDa PEG linker
B2: FVIIa-Fab1029 (other)
heavy: B1 heavy
light: B1 light
chain: B1 chain
modifications: linker attached as sialic acid derivative to an N-linked glycan (ST3Gal-III); gamma-carboxylated Glu in the Gla domain; unpaired hinge Cys (YGPPC) coupled by maleimide to the 10 kDa PEG linker
B3: hTLT-1 ECD-His (receptor)
chain: QGIVGSLPEVLQAPVGSSILVQCHYRLQDVKAQKVWCRFLPEGCQPLVSSAVDRRAPAGRRTFLTDLGGGLLQVEMVTLQEEDAGEYGCMVDGARGPQILHRVSLNILPPEEEEETHKIGSLAENAFSDPAGSANPLEPSQDEKSIPHHHHHH
notes: Extracellular domain of human TLT-1 with C-terminal His-6 tag; the range 16-168 is computed from these; also called TLT-1-His; His tagged human TLT1

The target in assay [1] is T1, human TLT-1 on activated platelets. Nature of the assay: cell-based or functional assay.
The assay “FVIIa-Fab1001” addresses B1. In words: SPR Biacore T200, His-tagged TLT-1 captured via anti 6xHis mAb, analyte 29.29-0.45 nM, 25 C. The procedure:
Method: An anti 6×his antibody was immobilised to a level of approx 9000 RU on a CM5 chip (0.5 mg/ml diluted in Na-acetate, pH 5.0) using the standard procedure recommended by the supplier. Human his-tagged TLT-1 in a concentration of 100 ng/ml was used as ligand. FVIIa-Fab1001 in two-fold dilutions from 29.29 nM to 0.45 nM was used as analytes. The running and dilution buffer was made from: 10 mM HEPES, 150 mM NaCl, 3 mM EDTA, 0.005% p20, pH 7.4. Regeneration was obtained by 3 M MgCl₂. The experiment was run at 25 degree Celsius. Determination of kinetic and binding constants (kₒₙ, koff, KD) was obtained assuming a 1:1 interaction of TLT1 and FVIIa-Fab1001 using the Biacore T200 evaluation software (Table 19).

For the assay “FVIIa-Fab1029”, the target named is B2. Nature of the assay: SPR Biacore T100, TLT-1 immobilised on CM5, analyte 20-0.3 nM. The protocol: TLT-1 was immobilized directly to a CM5 chip to a level of approx 2000 RU (50 ug/ml diluted in Na-acetate, pH 4.0) using the standard procedure recommended by the supplier and reagents provided in Table 16. Two-fold dilutions of FVIIa-Fab1029 and FIX-Fab0135 from 20 nM to 0.3 nM were tested for binding to TLT-1. Running and dilution buffer: 10 mM HEPES, 150 mM, 0.005% p20, pH 7.4. Regeneration was obtained by 10 mM Glycine, pH 1.7. Determination of kinetic and binding constants (kₒₙ, koff, KD) was obtained assuming a 1:1 interaction of TLT-1 and FVIIa-Fab1029 or FIX-Fab0135 using the Biacore T100 evaluation software.

For another assay, the target named is T2, human fibrinogen. Nature of the assay: SPR Biacore T100, TLT-1 immobilised on CM5, fibrinogen 200-0.2 nM as analyte. The protocol: Human TLT-1 was immobilised to a level of approx 1000 RU on a CM5 chip (50 μg/ml diluted in Na-acetate, pH 4.0) using the standard procedure recommended by the supplier. Four-fold dilutions of human fibrinogen from 200 nM to 0.2 nM were tested for binding to the immobilized TLT-1. Running and dilution buffer: 10 mM HEPES, 150 mM, 0.005% p20, pH 7.4. Regeneration was obtained by 10 mM Glycine, pH 1.7.
Determination of kinetic and binding constants (kₒₙ, koff, KD) was obtained assuming a 1:1 interaction of TLT-1 and fibrinogen using the Biacore T100 evaluation software (Table 11).

As to B1, the “peak thrombin generation at 25 nM, haemophilia A like platelet rich plasma” value in assay [1] is ~4 fold compared to rFVIIa (25 nM).

In the case of B2, in assay [1], the “peak thrombin generation at 25 nM, haemophilia A like platelet rich plasma” value was ~2 fold compared to rFVIIa (25 nM).

Turning to B3, the Kd with FVIIa-Fab1001 amounted to 3.99 nM; with FVIIa-Fab1029, 18.3 nM; with human fibrinogen, 94 nM. The koff was determined as 0.00319 s⁻¹ with FVIIa-Fab1001, 0.00726 s⁻¹ with FVIIa-Fab1029 and 0.000392 s⁻¹ with human fibrinogen. The kon with FVIIa-Fab1001 was found to be 801000 M⁻¹ s⁻¹; in the assay with FVIIa-Fab1029 it was 397000 M⁻¹ s⁻¹; with human fibrinogen it was 4170 M⁻¹ s⁻¹.
